In US7888291B2, “Substrates and assays for β-secretase” (Elan Pharmaceuticals, Inc., priority 2000, dated 2011):
Entries after “also recorded” stand apart in the source; their conditions may differ. Marks after values point to notes of the source that are not given here. Blank lines part the entries; values can stand above or below the substance they belong to.

Legend:
Hu-Asp2 [1] = biological target: T1, Hu-Asp2 (Homo sapiens, UniProt P56817); assay: Hu-Asp2 peptide substrate cleavage assay (HPLC quantitation of cleavage products); assay type: biochemical; design: key to Activity: Those substrates that were not cleaved by the Hu-Asp2 are indicated by a “−” sign; substrates that produced activity are indicated by “+” signs in which the greater the activity, the more + signs are provided; ++: substrates that produced activity are indicated by “+” signs in which the greater the activity, the more + signs are provided; ++++: substrates that produced activity are indicated by “+” signs in which the greater the activity, the more + signs are provided; settings: for Activity: 200 μM test substrate, 210 nM Hu-Asp2 enzyme, pH 4.5, 37° C., 3 hours
T1 construct: made in house; host or cells: High Five insect cells
T1 sequence (P56817 46-501): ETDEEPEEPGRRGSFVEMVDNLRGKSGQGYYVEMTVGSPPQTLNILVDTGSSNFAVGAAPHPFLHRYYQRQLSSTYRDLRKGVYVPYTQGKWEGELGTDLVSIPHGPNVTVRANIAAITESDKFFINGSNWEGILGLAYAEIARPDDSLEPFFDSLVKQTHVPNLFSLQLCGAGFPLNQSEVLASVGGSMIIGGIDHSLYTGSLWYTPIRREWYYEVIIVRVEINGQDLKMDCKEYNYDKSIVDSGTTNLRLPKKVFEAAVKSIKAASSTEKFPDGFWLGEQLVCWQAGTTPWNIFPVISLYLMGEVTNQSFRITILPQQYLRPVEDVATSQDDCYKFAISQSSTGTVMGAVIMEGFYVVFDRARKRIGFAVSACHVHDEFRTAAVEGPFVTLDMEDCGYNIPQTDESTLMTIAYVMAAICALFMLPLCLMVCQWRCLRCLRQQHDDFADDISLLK
Experimental: The peptides listed in Table 2 were designed, synthesized, and tested for activity as substrates for Hu-Asp2. 200 μM of each test substrate was incubated with 210 nM Hu-Asp2 enzyme at pH 4.5 at 37° C. for 3 hours. Of course it should be understood that these are merely exemplary assay conditions, and those of skill in the art will be able to vary these conditions and yet still provide appropriate Hu-Asp2 activity. For example, it is envisioned that the assays may be conducted at a pH range of from between about 4.0 to about 7.0. The amount of enzyme added to a given reaction mixture may also be varied and those of skill in the art will be able to perform assays defining the optimal enzyme concentrations necessary for a given assay, as such 150 nm; 200 nm; 250 nm; 300 nm or more or less enzyme may be added. Substrate concentration in those also may be varied such that an assay may use 100, 150 μM, 200 μM, 250 μM, 300 μM, 350 μM or more or less of any given; substrate. It may be that one substrate produces an optimum activity at one concentration whereas another substrate is needed to be present at a different concentration to produce an optimum cleavage rate. However, such optimizations of enzyme assay conditions is well within the skill of those in the art and will not require undue experimentation.
In an exemplary assay to determine the cleavage of the substrates of the present invention, Asp2 was prepared from High Five™ insect cells. Generally, the assasy are run in solution at acidic pH (4.0 to 5.0), at 25-37° C. in the presence of nM or sub-nanomolar enzyme. After a suitable period of incubation the reaction is stopped at a desired time by addition of 4% trifluoracetic acid (TFA). Substrates and products are separated using reverse phase HPLC. The disappearance of the substrates and the appearance of the products are monitored by continuous measurement of the absorbance of the effluent at […]. Furthermore, if the peptide comprises a tryptophan residue, the monitoring may additionally or alternatively involve continuous monitoring of fluorescence of tryptophan fluorescence (excitation at 280 nm, emission at […]) of the effluent.
In a typical assay, 210 nM enzyme and 200 μM substrate were incubated in 0.2 M sodium acetate at pH 4.5 in 100 μl volume at 37° C. for 1 to 3 hours. The assay was stopped by the addition of 50 μl 4% TFA to lower the pH below the active range of the enzyme. Subsequently, 100 μl of this mixture was injected into a Hewlett Packard Model 1090 HPLC equipped with a Vydac column (4.6 mm i.d.×150 mm, 5 μm) pre-equilibrated with 95% A (0.15% TFA in water), 5% B (0.15% TFA in acetonitrile). The constituents were then eluted from the column with the following linear gradients: 0-15 min: 5-50% B; 15-17 min: 50-100% B; 17-20 min: 100-5% B; 20-22 min: 5% B). The cleavage products were then quantitated using an enhanced integrator. […]

Hu-Asp2 [2] = biological target: T1, Hu-Asp2; assay: as above; assay type: biochemical
[3] = Table 5, 2 nM enzyme, 50 μM substrate, 25 mM Sodium acetate, pH 4.4, 37° C., 2 hr
[4] = Table 5, 2 nM enzyme, 50 μM substrate, 25 mM Sodium acetate, pH 4.4, 37° C., 2 hr, SEQ ID NO:141 = 100
[5] = Table 4, 200 nM enzyme, 200 μM substrate, pH 4.5, 37° C., 1 hr, SEQ ID NO:19 = 100

- activity as substrate of Hu-Asp2 (in words) (Hu-Asp2 [1]): good substrate for Hu-Asp
- Activity (Hu-Asp2 [1]): ++++
Substance: KVEANY-EVEGERKK (KVEANYEVEGERKK)

- Activity (Hu-Asp2 [1]): +
Substance: KVEANY-LVEGERKK (KVEANYLVEGERKK)

- Cleavage Activity (Hu-Asp2 [2]; [3]): 0.69 µmol/min/mg
- Relative rate of Cleavage (Hu-Asp2 [2]; [4]): 430
Substance: SEIDY-EVEFR (SEIDYEVEFR)

- rate of cleavage / activity over SEVSY-EVEFR (SEQ ID NO:141) (Hu-Asp2 [2]): 5 fold
- Cleavage Activity (Hu-Asp2 [2]; [3]): 0.80 µmol/min/mg
- Relative rate of Cleavage (Hu-Asp2 [2]; [4]): 500
Substance: SEISY-EVEFR (SEISYEVEFR)

- Cleavage Activity (Hu-Asp2 [2]; [3]): 0.38 µmol/min/mg
- Relative rate of Cleavage (Hu-Asp2 [2]; [4]): 240
Substance: SEVDY-EVEFR (SEVDYEVEFR)

- Relative rate of Cleavage (Hu-Asp2 [2]; Table 3, 200 nM enzyme, 200 μM substrate, 300 mM Na-acetate, 4% DMSO, pH 4.5, 37° C., 24 hr reaction): 2.1*
- Relative rate of Cleavage (Hu-Asp2 [2]; Table 4, 200 nM enzyme, 200 μM substrate, pH 4.5, 37° C., 24 hr reaction): 2.1*
Substance: SEVKM-DAEFR (SEVKMDAEFR) [APP-Wildtype, reference compound]

- Relative rate of Cleavage (Hu-Asp2 [2]; Table 3, 200 nM enzyme, 200 μM substrate, 300 mM Na-acetate, 4% DMSO, pH 4.5, 37° C., 4 hr, APP-Sw = 100): 100
- Relative rate of Cleavage (Hu-Asp2 [2]; [5]): 100.0
Substance: SEVNL-DAEFR (SEVNLDAEFR) [APP-Sw, reference compound]

- activity as fraction of that of SEVSY-EVEFR (SEQ ID NO:141) (Hu-Asp2 [2]; peptide activity assays): ⅕
Substance: SEVNY-↓-EVEFR (SEVNYEVEFR)

- Relative rate of Cleavage (Hu-Asp2 [2]; [5]): 18.3
- activity / rate of hydrolysis by Asp2 over wild type peptide (SEQ ID NO:20) (Hu-Asp2 [2]; Tables 3 and 4): about 9 fold
Substance: SEVSY-↓-DAEFR (SEVSYDAEFR)
- activity compared with Swedish mutant peptide (SEQ ID NO:19) (Hu-Asp2 [2]; Table 4): about five times less than that of the Swedish mutation

- Relative rate of Cleavage (Hu-Asp2 [2]; [5]): 77.1
Substance: SEVSY-↓-EAEFR (SEVSYEAEFR)
- activity as substrate of Hu-Asp2 (in words) (Hu-Asp2 [1]): activity comparable to the Swedish mutation; also recorded: activity comparable to that of the Swedish mutant

- Cleavage Activity (Hu-Asp2 [2]; [3]): 0.62 µmol/min/mg
- Relative rate of Cleavage (Hu-Asp2 [2]; [4]): 390
Substance: TEIDY-EVEFR (TEIDYEVEFR)

- Cleavage Activity (Hu-Asp2 [2]; [3]): 0.37 µmol/min/mg
- Relative rate of Cleavage (Hu-Asp2 [2]; [4]): 230
Substance: TEVDY-EVEFR (TEVDYEVEFR)

- Cleavage Activity (Hu-Asp2 [2]; [3]): 0.27 µmol/min/mg
- Relative rate of Cleavage (Hu-Asp2 [2]; [4]): 160
Substance: TEVSY-EVEFR (TEVSYEVEFR)

- rate of cleavage / activity over SEVSY-EVEFR (SEQ ID NO:141) (Hu-Asp2 [2]): 8.4 fold
- Cleavage Activity (Hu-Asp2 [2]; [3]): 1.35 µmol/min/mg
- Relative rate of Cleavage (Hu-Asp2 [2]; [4]): 840
Substance: TRPGSGLTNIKTEEISEVSY-EVEFR (TRPGSGLTNIKTEEISEVSYEVEFR)

- activity as substrate of Hu-Asp2 (in words) (Hu-Asp2 [1]): found to be cleaved by the Hu-Asp2
Substance: VEALY-LVEGER (VEALYLVEGER)

- Activity (Hu-Asp2 [1]): ++
Substance: WRRVEALY-LVEGERK (WRRVEALYLVEGERK)
